41 sequences from the nanobody polyreactivity screen of Harvey et al. (2022) can be followed below.

This series in a line: yeast display, Sf9 membrane polyspecificity reagent, FACS + sequencing; frameworks hold sequencing errors. The method, boiled down:
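After 36–48 hours of galactose induction, yeast (Saccharomyces cerevisiae BJ5465) displaying a synthetic nanobody library were stained at 4 °C for 1 hour with 10% biotinylated, detergent-solubilized Sf9 membrane reagent. Streptavidin microbeads enriched the stained cells before FACS sorting into low and high (top ~1%) gates on anti-HA and streptavidin fluorescence. Each clone's polyreactivity label reflects its gate of origin.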
With “QVQLVESGGGLVQAGGSLRLSCAASGIIFYIYAMGWYRQAPGKERELVAAITSSGGSTNYADSVKGRFTISRDNAKNTVYLQMNSLKPEDTAVYYCAAAYRPWQEFYWGQGTQVTVSS”, the “polyreactivity (PSR sort gate)” value is “high polyreactivity”. For “QVQLVESGGGLVQAGGSLRLSCAASGIIFYIYTMGWYRQAPGKERELVAAINRSGFRTYYADSVKGRFTISRDNAKNTVYLQMNSLKPEDTAVYYCAAGTGSRDYYWGQGTQVTVSS”, the “polyreactivity (PSR sort gate)” value was “high polyreactivity”. Turning to “QVQLVESGGGLVQAGGSLRLSCAASGIIFYIYTMGWYRQAPGKERELVAAINRSGSRTYYADSVKGRFTISRDNAKNTVYLQMNSLKPEDTAVYYCAAGTGSRDDYWGQGTQVTVSS”, the “polyreactivity (PSR sort gate)” value was “high polyreactivity”. With “QVQLVESGGGLVQAGGSLRLSCAASGIIFYKYAMGWYRQAPGKERELVAAITSGGGRTYYADSVKGRFTISRDNPKNSVYLQMNSLKPEDTAVYYCAATRPATYAAYDYWGQGTQVTVSS”, the “polyreactivity (PSR sort gate)” value is listed as “high polyreactivity”. In the case of “QVQLVESGGGLVQAGGSLRLSCAASGIIFYKYTMGWYRQAPGKERELVAAITKSGVRTYYADSVKGRFTISRDNAKNTVYLQMKSLKPEDTSVYYCAAKTPTKDRGSDFDYWGQGTQVTVSS”, the “polyreactivity (PSR sort gate)” value was “high polyreactivity”. Turning to “QVQLVESGGGLVQAGGSLRLSCAASGIIFYPNAMGWYRQAPGKERELVAAITGSGGSTYYADSVKGRFTISRDNAKNTVYLQMNSLKPEDTAVYYCNARVYWYYPMDYWGQGTQVTVSS”, the “polyreactivity (PSR sort gate)” value was “low polyreactivity”. Under “QVQLVESGGGLVQAGGSLRLSCAASGIIFYQYAMGRNRQAPGKERELVAAISSGVNTYYADSVKGRFTISRDNAKNTVYLQMNSLKPEDTAVYYCAAEKGRLYDWFDIYYIEYYYWGQGTQVTVSS” stands “high polyreactivity”; under “QVQLVESGGGLVQAGGSLRLSCAASGIIFYQYAMGWYRQAPGKERELVAAINTSGGSTYADSVKGRFTISRDNAKNTVYLQMNSLKPEDTAVYYCAASYRYVRWKWGYNYWGQGTQVTVSS”, “high polyreactivity”; under “QVQLVESGGGLVQAGGSLRLSCAASGIIFYRNAMGWYRQAPGKERELVAGITSGGSTYYADSVKGRFTISRDNAKNTVYLQMNSLKPEYTAVYYCAAYYRASQRYLQYGYWGQGTQVTVSS”, “high polyreactivity”. The same measure for “QVQLVESGGGLVQAGGSLRLSCAASGIIFYRYAMGWYRQAPGKERELVAAISASGDSTYYADSVKGRFTISRDNAKNTVYLQMNSLKPEDTAVYYCAADYGYRYDYWGQGTQVTVSS”: “low polyreactivity”; for “QVQLVESGGGLVQAGGSLRLSCAASGIIFYRYAMGWYRQAPGKERELVSAITWSGVSTSYADSVKGRFTISRDNAKNTVYLQMNSLKPEDTAVYYCAATNYGTFWGGQSERYDYWGQGTQVTVSS”: “low polyreactivity”. In the case of “QVQLVESGGGLVQAGGSLRLSCAASGIIFYRYAMGWYRQAPGKESELVAAITWSGVSTSYADSVKGRFTISRDNAKNTVYLQMNSLKPEDTAVYYCNKDPGTLYGDMDSWGQGTQVTVSS”, the “polyreactivity (PSR sort gate)” value was “low polyreactivity”. Turning to “QVQLVESGGGLVQAGGSLRLSCAASGIIFYRYAMGWYRQAPGKEWELVAAITWRGGSTYYADSVKGRFTISRDNAKNTVYLQMTSLKPEDTAVYYCAARRRATYEFDYWGQGTQVTVSS”, the “polyreactivity (PSR sort gate)” value was “high polyreactivity”. Consider “QVQLVESGGGLVQAGGSLRLSCAASGIIFYSNTMGWYRQAPGKERELVAGISRSGSSTYYADSVKGRFTISRDIAKNTVYLQMNSLKPEDTAVYYCADYRYGVTNAYGYWGQGTQVTVSS”, for which the “polyreactivity (PSR sort gate)” value is “high polyreactivity”. Take “QVQLVESGGGLVQAGGSLRLSCAASGIIFYSNTMGWYRQAPGKERELVAGISRSGSSTYYADSVKGRFTISRDNAKNTVYLQMNSLKPEDTAVYYCAAYRYGVTNAYGYWGQGTQVTVSS”: the “polyreactivity (PSR sort gate)” value was “high polyreactivity”. Take “QVQLVESGGGLVQAGGSLRLSCAASGIIFYSYAMGWYRQAPGKERELVAAISWSGGSTYYADSVKGRFTISRDNAKNTVYLQMNSLKPEDTAVYYCAKDGYPYLSWLRSAHYDYWGQGTQVTVSS”: the “polyreactivity (PSR sort gate)” value was “low polyreactivity”. In the case of “QVQLVESGGGLVQAGGSLRLSCAASGIIFYVNAMGWYRPAPGKDRELVAAITFGGDSTYYADSVKGRFTITRDNAKNTVYLQMNSLKQEDTAVYYWAAEGLSLGGYYYWGQGTQVTVSS”, the “polyreactivity (PSR sort gate)” value is “low polyreactivity”. For “QVQLVESGGGLVQAGGSLRLSCAASGIIFYWNAMGWYRQAPGKEREFVASISGSGGSTYADSVKGRFTISRDNAKKTVYLQMNSLKPEDTAVYYCAADFSNVGVQHDYYWGQGTQVTVSS”, the “polyreactivity (PSR sort gate)” value is “high polyreactivity”. With “QVQLVESGGGLVQAGGSLRLSCAASGIIFYYYAMGWYRQAPGKERELVACISYSGGSTYADSVKGRFTISRDNAKNTVYLQMNSLKPEDTAVYYCAADYDYGGHWYDYWGQGTQVTVSS”, the “polyreactivity (PSR sort gate)” value is listed as “low polyreactivity”.

As for “QVQLVESGGGLVQAGGSLRLSCAASGIIFYYYGKGWYRQAPGKEREFVAAISTSGGNTYYADSVKGRFTISRDNAKNTVYLQMNSLKPEDTAVYYCAADDWPWGDAGVDYWGQGTQVTVSS”, the “polyreactivity (PSR sort gate)” value was “low polyreactivity”. As to “QVQLVESGGGLVQAGGSLRLSCAASGIIFYYYTIGWYRPAPGKERELVASITWSGGGSTYYADSVKGRFTISRDNAKNTVYLQMNCLNPEDTAVYYCNADEYYSYYYWGQGTQVTVSS”, the “polyreactivity (PSR sort gate)” value is reported as “low polyreactivity”.

As for “QVQLVESGGGLVQAGGSLRLSCAASGIIFYYYTMGWYRQAPGKERELVAAISFSGSNTYYADSVKGRFTISRDNAKNTVYLQMNSLKPEDTAVYYCAARARKDSNRRTYGYWGQGTQVTVSS”, the “polyreactivity (PSR sort gate)” value is “high polyreactivity”.

Turning to “QVQLVESGGGLVQAGGSLRLSCAASGIIFYYYTMGWYRQAPGKERELVASISRDGGSTHYADSVKGRFTISRDNAKNTVYLLMNSLKPEDTAVYYCAARDPTGSSYAFYRRKVYYWGQGTQVTVSS”, the “polyreactivity (PSR sort gate)” value was “high polyreactivity”. The same measure for “QVQLVESGGGLVQAGGSLRLSCAASGIIIKNYSMGWYRQAPGKEREFVAAISYSGTNTYYADSVKGRFTISRDYAKNTVYLQMNSLKPEDTAVYYCARRKTVVYLAGGRRDYYSWGQGTQVTVSS”: “high polyreactivity”; for “QVQLVESGGGLVQAGGSLRLSCAASGIIILEYVMGSYRQAPGKERELVAAINSGGSTYYADSVKGRFTISRDNAKNTVYLQMNSLKPEDTAVYYCAADDYYKFDYWGQGTQVTVSS”: “low polyreactivity”.

For “QVQLVESGGGLVQAGGSLRLSCAASGIIIQYYAMGWYRQAPGKERELVATITLRGGITYYADSVKGRFTISRDNAKNTVYLQMNCLKPEDTAVYYCNTDQGTTSDYGYWGQGTQVTVSS”, the “polyreactivity (PSR sort gate)” value is on record as “low polyreactivity”. Under “QVQLVESGGGLVQAGGSLRLSCAASGIIIRKYAMGWYRQAPGKERELVAAITTRGSRTYYADSVKGRFTISRDNAKNTVYFEMNSLKPEDTAVYYCAADFGYAWWWYDTYGYWGQGTQVTVSS” stands “high polyreactivity”; under “QVQLVESGGGLVQAGGSLRLSCAASGIIIRKYAMGWYRQAPGKERELVAAITTRGSRTYYADSVKGRFTISRDNAKNTVYLQMNSLKPEDTAVYYCAADFGYAWWWYDTYGYWGQGTQVTVSS”, “high polyreactivity”.

As to “QVQLVESGGGLVQAGGSLRLSCAASGIIISLYAMGWYSQAPGKERELVATISTGGGTYYADSVKGRFTISRDNAKNTVYLQINSLKPEDTAVYYCAARRSYYGRSYYYWGQGTQVTVSS”, the “polyreactivity (PSR sort gate)” value is recorded as “high polyreactivity”. Under “QVQLVESGGGLVQAGGSLRLSCAASGIIIWTNVMGWYRQAPGKEREFVAAISRSGGSTYYADSVKGRFTISRDNAKNTVYLQMNSLKPEDTAVYYCAARLSYSVQKFDYWGQGTQVTVSS” stands “high polyreactivity”. The same measure for “QVQLVESGGGLVQAGGSLRLSCAASGIIIYNYTMGWYRQAPGKERELVAAISRSGGRTYYADSVKGRFTISRDNAKNNVYLQMNSLKPEDTAVYYCAAAGYYHTYWGTMDFWGQGTQVTVSS”: “high polyreactivity”; for “QVQLVESGGGLVQAGGSLRLSCAASGIILAHYAMGWYRQAPGKERELVAGISRSGTRTYYADSVKGRFTISRDNAKNTVYLQMNSLKPEDTAVYYCNKDAYTYWYFEMGYWGQGTQVTVSS”: “high polyreactivity”; for “QVQLVESGGGLVQAGGSLRLSCAASGIILATYAMGLYRQAPGKEMELVAAISWSGGRTYYADSVKGRFTISRDKAKNTVYLQMNSLKPEDTAVYYCNAAYPAYGRTQYGRYDYWGQGTQVTVSS”: “high polyreactivity”. Consider “QVQLVESGGGLVQAGGSLRLSCAASGIILGSYAMGWYRQAPGTERELVAGITSGGGTYYADSVKGRFTISRDNAKNTVYLQMNSLKPEDTAVYYCAKLYFHYYRYGYWGQGTQVTVSS”, for which the “polyreactivity (PSR sort gate)” value was “low polyreactivity”. On to “QVQLVESGGGLVQAGGSLRLSCAASGIILHGYAMGWYRQAAGKEREFVATITVSGSSTYYADSVKGRFTISRDNAKNTVYLQMNSLKPEDTAVYYCAARSWVIVYGLQYDYWGQGTQETVSS”, for which the “polyreactivity (PSR sort gate)” value is recorded as “high polyreactivity”. For the sequence “QVQLVESGGGLVQAGGSLRLSCAASGIILIHNAMGWYRQARGKERELVAAISTRGGRTYYADSVKGRFTISRDNAKNTVYLQMNSLKPEDTAVYYCAAYRTTPYRDYKMDYLGQGTQVTVSS”, the “polyreactivity (PSR sort gate)” value is “high polyreactivity”. Regarding “QVQLVESGGGLVQAGGSLRLSCAASGIILKRNAMGWYRQAPGKERELVAAITSGGTTSYADSVKGRFTISRDNAKNTVYLQLNSLKPEDTAVYYCATRKPVSVYRFAPVYKNSNYWGQGTQVTVSS”, the “polyreactivity (PSR sort gate)” value is reported as “high polyreactivity”. “QVQLVESGGGLVQAGGSLRLSCAASGIILPTYVMGWYRQAPGKERELVAAISRRGGSTYYADSVKGRFTISRDNAKNTVYLQMNSLKPEDTAVYYCNAVSNPVGSAYDYWGQGTQVTVSS”: the “polyreactivity (PSR sort gate)” value is given as “high polyreactivity”. For the sequence “QVQLVESGGGLVQAGGSLRLSCAASGIILPYYAMGWYRPAPGKEREFVATISSDGTSTYYADSVKGRFTISRDNAKNTVYLQMNSLKPEDTAVYYCDARIRQNPGGDNSWGQGTQVTVSS”, the “polyreactivity (PSR sort gate)” value is listed as “low polyreactivity”.

For “QVQLVESGGGLVQAGGSLRLSCAASGIILPYYAMGWYRQAPGKEREFVATISSDGTSTYYADSVKGRFTISRDNAKNTVYLQMNSLKPEDTAVYYCAARIRQNPGGDNSWGQGTQVTVSS”, the “polyreactivity (PSR sort gate)” value was “low polyreactivity”. The same measure for “QVQLVESGGGLVQAGGSLRLSCAASGIILQKYTMGWYRQAPGKERELVAASTRSGGSTYYADSVKGRFTISRDNAKNTVYLQMNSLKPEDTAVYYCYGYEYWGQGTQVTVSS”: “high polyreactivity”.
